Columns and labels:
Experiment in all cases: ITC
[1] = biological target: T1, HRFYRLAN peptide (RNA dependent RNA polymerase) (SARS-CoV-2, UniProt P0DTD1)
T1 chain: HRFYRLAN

[2] = biological target: T2, NRKRISN peptide (spike RBD) (SARS-CoV-2, UniProt P0DTC2)
T2 chain: NRKRISN

[3] = biological target: T3, YRLFRK peptide (spike RBD) (SARS-CoV-2, UniProt P0DTC2)
T3 chain: YRLFRK

Binder: GGTTGGTGTGGTTGG (structured_DNA) [BC 007]
- Kd [1]: 54.7 ± 0.6 µM
- binding result [2]: no binding
- Kd [3]: 86.7 ± 1.2 µM
